Molecular target: Robo1-CC3 (UniProt Q9Y6N7)
Experiment: SPR

Chain of Robo1-CC3 (Q9Y6N7 26-1651): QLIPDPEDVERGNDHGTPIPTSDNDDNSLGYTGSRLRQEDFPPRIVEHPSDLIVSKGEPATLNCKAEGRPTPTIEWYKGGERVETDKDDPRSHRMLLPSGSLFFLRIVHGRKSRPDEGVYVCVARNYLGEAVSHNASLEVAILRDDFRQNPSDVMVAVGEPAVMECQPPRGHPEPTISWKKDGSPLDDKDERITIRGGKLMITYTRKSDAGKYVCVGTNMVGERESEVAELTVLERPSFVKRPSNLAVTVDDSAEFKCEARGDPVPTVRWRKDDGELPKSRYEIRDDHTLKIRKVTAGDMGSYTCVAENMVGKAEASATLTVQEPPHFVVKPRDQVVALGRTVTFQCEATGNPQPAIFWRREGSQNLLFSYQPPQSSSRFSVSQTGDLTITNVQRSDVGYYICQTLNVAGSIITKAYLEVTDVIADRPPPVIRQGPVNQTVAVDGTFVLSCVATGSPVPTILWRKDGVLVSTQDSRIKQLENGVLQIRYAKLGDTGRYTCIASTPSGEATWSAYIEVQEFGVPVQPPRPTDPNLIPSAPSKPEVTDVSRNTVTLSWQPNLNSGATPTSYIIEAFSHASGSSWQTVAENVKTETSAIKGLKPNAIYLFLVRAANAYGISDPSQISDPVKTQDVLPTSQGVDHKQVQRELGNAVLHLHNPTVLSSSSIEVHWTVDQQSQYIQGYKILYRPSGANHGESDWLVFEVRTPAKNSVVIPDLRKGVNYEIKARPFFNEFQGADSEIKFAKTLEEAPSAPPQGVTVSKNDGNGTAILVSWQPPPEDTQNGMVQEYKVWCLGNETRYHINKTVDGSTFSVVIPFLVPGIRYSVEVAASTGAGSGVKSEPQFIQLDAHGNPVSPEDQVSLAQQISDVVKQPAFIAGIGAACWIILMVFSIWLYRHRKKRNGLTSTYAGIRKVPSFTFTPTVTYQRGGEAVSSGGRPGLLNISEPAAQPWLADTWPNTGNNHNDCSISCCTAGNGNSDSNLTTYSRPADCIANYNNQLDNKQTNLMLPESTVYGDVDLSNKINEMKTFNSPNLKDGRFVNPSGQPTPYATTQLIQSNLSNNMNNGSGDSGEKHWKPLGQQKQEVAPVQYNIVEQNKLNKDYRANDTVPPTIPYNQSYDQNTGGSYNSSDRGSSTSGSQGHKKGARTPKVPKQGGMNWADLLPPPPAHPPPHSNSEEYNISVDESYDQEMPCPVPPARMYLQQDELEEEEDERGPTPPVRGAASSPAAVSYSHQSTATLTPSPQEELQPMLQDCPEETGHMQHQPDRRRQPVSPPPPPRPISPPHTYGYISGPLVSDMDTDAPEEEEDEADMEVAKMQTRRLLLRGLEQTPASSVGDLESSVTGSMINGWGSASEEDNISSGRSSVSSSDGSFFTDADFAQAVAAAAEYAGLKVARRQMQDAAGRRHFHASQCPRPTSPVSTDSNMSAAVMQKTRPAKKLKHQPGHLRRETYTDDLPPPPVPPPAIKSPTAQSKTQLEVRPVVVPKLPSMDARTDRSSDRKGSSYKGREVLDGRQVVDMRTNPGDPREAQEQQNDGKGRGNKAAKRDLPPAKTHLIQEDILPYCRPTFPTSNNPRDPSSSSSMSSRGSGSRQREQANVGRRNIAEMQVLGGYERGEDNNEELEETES

- Kd: 5.6 µM
Substance: SRGAP2A:F-BARC hetero-dimer (from UniProt O75044 1-799; P0DJJ0 1-355) (complex)

From article PMC5435084
